# No end group written: not given here.
# Target: T1, human Y4 receptor (human, UniProt P50391 1-375)
# Experiment: 125I-PP displacement
# T1 sequence (P50391 whole entry): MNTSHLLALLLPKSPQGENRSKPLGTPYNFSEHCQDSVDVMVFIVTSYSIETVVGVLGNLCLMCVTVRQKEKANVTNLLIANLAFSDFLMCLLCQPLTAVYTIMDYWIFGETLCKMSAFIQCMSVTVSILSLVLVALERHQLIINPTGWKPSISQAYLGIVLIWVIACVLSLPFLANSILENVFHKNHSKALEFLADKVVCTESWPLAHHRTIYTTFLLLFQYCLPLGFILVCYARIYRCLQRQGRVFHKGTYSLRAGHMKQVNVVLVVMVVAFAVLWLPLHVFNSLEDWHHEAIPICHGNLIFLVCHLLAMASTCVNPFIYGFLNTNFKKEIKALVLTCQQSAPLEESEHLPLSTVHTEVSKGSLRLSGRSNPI
row,Binder,IC50 [nM]
1,AAAPLEPVYPGDNATPEQMAQYAADLRRYINMLTRPRY [6655],0.28
2,APLEPVYPGDNATPEQMARYYASLRHYLNMLTRPRY [6462],0.18
3,APLEPVYPGDNATPEKMAQYAADLRRYINMLTRPRY [6466],1.29
4,APLEPVYPGDNATHEQMAQYAADLRRYINMLTRPRY [6441],0.3
5,APLEPVYPGDNATPEQMAHYYASLRRYINMLTRPRY [6640],0.15
6,APLEPVYPGDNATPEQMAQYAADLRRYINMLTKPRY [6452],0.42
7,APLEPVYPGDYATPEQMAQYAADLRRYINMLTRPRY [6440],0.26
8,APLEPVYPGDNATPEQMAQYAADLRHYINMLTRPRY [6438],0.49
9,APLKPVYPGDNATPEQMAQYAADLRRYINMLTRPRY [6443],4
10,APLEPVYPGDNATPEQMAQYAADLRRYINTLTRPRY [6437],0.3
11,KPLEPVYPGDNATPEQMAQYAADLRRYINMLTRPRY [6436],0.48
12,APLEPVYPGDNATPEQMARYAADLRRYINMLTRPRY [6606],0.16
13,APLEPVYPGDNATPEQMAQYAADLRRYINMLTAPRY [6450],8.8
14,APLEPVYPGDNATPEQLAQYAADLRRYINMLTRPRY [6429],0.55
15,GPLEPVYPGDNATPEQMAQYAADLRRYINMLTRPRY [6636],0.6
16,APKEPVYPGDNATPEQMAQYAADLRRYINMLTRPRY [6463],0.67
17,APLEPVYPGDNATPEQMAQYAADLRRYINMLTRPAY [6449],2.2
18,APLEPVYPGDNATPEQMAQYAKDLRRYINMLTRPRY [6465],0.85
19,APLEPVYPGDDATPQQMAQYAAELRRYINMLTRPRY [6457],0.13
20,KPLEPVYPGDNATPEQMAQYAADLRRYINMLTRPRY [6434],0.25
21,APLEPVYPGDNATPEQMAQYAADLKRYINMLTRPRY [6432],0.36
22,APLKPVYPGDNATPEQMAQYAADLRRYINMLTRPRY [5920],4.5
23,APLEPVYPGDNATPEELNRYYASLRRYINMLTRPRY [6460],0.2
24,APLEPVYPGDNATEEELVKYFIDLRRYINMLTRPRY [6622],1.2
25,APLEPVYPGDNATEEEAVRLFIDLRRYINMLTRPRY [6621],16
26,KAPLEPVYPGDNATPEQMAQYAADLRRYINMLTRPRY [compound of SEQ ID NO:52 (code 6647)],0.21
27,EAPLEPVYPGDNATPEQMAQYAADLRRYINMLTRPRY [6651],0.35
28,DAPLEPVYPGDNATPEQMAQYAADLRRYINMLTRPRY [6652],0.36

# Target: T1, human Y4 receptor
# Experiment: 125I-PP displacement
# Remark: another data set of the same source
row,Binder,IC50 [nM]
1,APLEPSYPGDNATPEQLAKYAAELRRYINKLTRPRY [4058913],0.0775
2,PLEPSYPGDNATPEQLAKYAAELRRYINKLTRPRY [4058912],0.0495
3,GAPLEPKYPGDNATPEEMAKYAAELRRYINKLTRPRY [4058911],0.077

# Target: T1, human Y4 receptor
# Experiment: 125I-PP displacement
# Remark: another data set of the same source
row,Binder,IC50 [nM]
1,"AAPLEPVYPGDNATPEQMAKYAADLRRYINKLTRPRY [compound of SEQ ID NO:348 (Ala 0, Lys19, Lys 30, code 4056385)]",0.051

# Target: T1, human Y4 receptor
# Experiment: 125I-PP displacement
# Remark: another data set of the same source
row,Binder,IC50 [nM]
1,APLEPVYPGDNATPEQMAQYAADLRRYINILTRPRY (ends and bridges not checked) [compound of SEQ ID NO:259 (code 4055713)],0.22
2,"APLEPVYPGDNATPEQMAQYAADLRRYINKLTRPRY [compound of SEQ ID NO:281 (Lys 30, code 4055855)]",0.16
3,APLEPVYPGDNATPEQMAQYAADLRRYINVLTRPRY (ends and bridges not checked) [compound of SEQ ID NO:260 (code 4055714)],0.09
4,APLEPEYPGDNATPEQMAQYAADLRRYINMLTRPRY (ends and bridges not checked) [compound of SEQ ID NO:276 (4055746)],0.16
5,"APLEPVYPGDNATPEQMAQYAAALRRYINMLTRPRY [compound of SEQ ID NO:277 (Ala 23, code 4055747)]",0.079
6,APLEPFYPGDNATPEQMAQYAADLRRYINMLTRPRY (ends and bridges not checked) [compound of SEQ ID NO:275 (code 4055745)],0.17
7,APLEPVYPGDNATPEQMAQYAADLRRYINFLTRPRY (ends and bridges not checked) [compound of SEQ ID NO:261 (code 4055715)],0.13
8,APLEPVYPGDNATPEQMAQYAADLRRYINMLTRPRF (ends and bridges not checked) [compound of SEQ ID NO:255 (code 4055708)],0.16

# Target: T1, human Y4 receptor
# Experiment: 125I-PP displacement
# Remark: another data set of the same source
row,Binder,IC50 [nM]
1,PLEPHYPGDDATPQQMAHYYSELRRYINKLTRPRY [4457895],0.145
2,GAPLEPKYPGDNATPEEKAKYAAELRRYINKLTRPRY [4061236],0.052
3,PAPLEPKYPGDNATPEEKAKYAAELRRYINKLTRPRY [4061235],0.054
4,PAPLEPKYPGDNATPEQMAKYAAELRRYINKLTRPRY [4068672],0.059
5,GAPLEPKYPGDNATPEEMAKYAAELRRYIDKLTRPRY [4061238],0.138
6,PAPLEPKYPGDNATPEEMAKYAAELRRYIDKLTRPRY [4061237],0.16
7,PAPLEPTYPGDNATPEEKAKYYSELRRYINKLTRPRY [4061239],0.054

# Source: patent publication US20100279930A1 (published 2010)
